Publication PMC6224091 (2018)

B1: V5-Par6A (wild type) [not stated] / HA-Cdc42(G12V) [not stated] (parent complex)
chain 1: MARPQRTPARSPDSIVEVKSKFDAEFRRFALPRASVSGFQEFSRLLRAVHQIPGLDVLLGYTDAHGDLLPLTNDDSLHRALASGPPPLRLLVQKRAEADSSGLAFASNSLQRRKKGLLLRPVAPLRTRPPLLISLPQDFRQVSSVIDVDLLPETHRRVRLHKHGSDRPLGFYIRDGMSVRVAPQGLERVPGIFISRLVRGGLAESTGLLAVSDEILEVNGIEVAGKTLDQVTDMMVANSHNLIVTVKPANQRNNVVRGASGRLTGPPSAGPGPAEPDSDDDSSDLVIENRQPPSSNGLSQGPPCWDLHPGCRHPGTRSSLPSLDDQEQASSGWGSRIRGDGSGFSL
chain 2: not shown

Variants of: B1
Experiment: co-immunoprecipitation (IP: GFP), quantified blot; HEK293T cells; HA-Cdc42(G12V) recovered in the GFP (YFP-Tuba) IP when co-expressed with the Par6A variant; n = 4; parent: 1; read off a plot
chain 1 I133A, chain 1 S134A was tested, and the ratio to parent was ~0.21.
